Columns and labels:
[1] = target: Taxol-stabilized microtubules polymerized from purified porcine tubulin (porcine) (UniProt P02550); test: cross-linking
[2] = target: Taxol-stabilized microtubules polymerized from purified porcine tubulin (porcine) (UniProt P02550); test: co-sedimentation

Substance	MEI-2*tubulin crosslinked band, percent of the WT fragment [1] [%]	MEI-2*tubulin crosslinked band, percent of WT [1] [%]	Kd [2] [µM]
MBP-MEI-2 1–90 K77A-K78A (from UniProt O44740 1-90) (domain or fragment)	84	–	–
MBP-MEI-2 1–90 K77D-K78D (from UniProt O44740 1-90) (domain or fragment)	87	–	–
MBP-MEI-2 full length 6KA (K8A-K9A K77A-K78A K274A-K275A) (from UniProt O44740 1-280) (natural protein)	–	53	3.68
MBP-MEI-2 full length 6KD (K8D-K9D K77D-K78D K274D-K275D) (from UniProt O44740 1-280) (natural protein)	–	6	6.15
